# In patent publication US20240116985A1 (published 2024):
# Starred links: 1 amine or outer side, 2 acyl side, 3 side chain; linkers in the order of their positions; H or OH if unused. Positions of bridges follow the written chain, without caps; N, C: chain ends. Non-standard residues stand in square brackets, D forms with d. Primed or numbered codes have the meaning given here. B5(15) = 2-amino-2-(pent-4-en-1-yl)hept-6-enoic acid (2,2-bis(4-pentenyl)glycine), stitching residue bearing two staples, C=CCCCC(CCCC=C)(N[*:1])C(=O)[*:2]; PyrS2″ = (S)-3-amino-1-((pent-4-en-1-yloxy)carbonyl)pyrrolidine-3-carboxylic acid (stapling residue), C=CCCCOC(=O)N1CC[C@@](N[*:1])(C(=O)[*:2])C1; B5(23) = 2-amino-2-(pent-4-en-1-yl)hept-6-enoic acid (2,2-bis(4-pentenyl)glycine), stitching residue, C=CCCCC(CCCC=C)(N[*:1])C(=O)[*:2]; B5(4) = 2,2-bis(4-pentenyl)glycine = 2-amino-2-(pent-4-en-1-yl)hept-6-enoic acid (stitching residue), C=CCCCC(CCCC=C)(N[*:1])C(=O)[*:2]; TfeGA = (S)-2-amino-3-((carboxymethyl)(2,2,2-trifluoroethyl)amino)propanoic acid, O=C([C@H](CN(CC(=O)[*:3])CC(F)(F)F)N[*:1])[*:2]; B5(3) = 2,2-bis(4-pentenyl)glycine (stitching residue), C=CCCCC(CCCC=C)(N[*:1])C(=O)[*:2]; Phe(3-COOH) = N[C@@H](Cc1cccc(C(=O)O)c1)C(=O)O; Phe(4-F) = N[C@@H](Cc1ccc(F)cc1)C(=O)O; Bta = N[C@@H](Cc1csc2ccccc12)C(=O)O; αAllylPro = C=CC[C@@]1(C(=O)O)CCCN1; tBuAla = CC(C)(C)C[C@H](N)C(=O)O; 3Thi = N[C@@H](Cc1ccsc1)C(=O)O; S8 = C=CCCCCCC[C@](C)(N)C(=O)O; hSer = N[C@@H](CCO)C(=O)O
# T1: B-cat-Halo (beta-catenin HaloTag NanoBRET construct expressed in HEK293 cells) (UniProt P35222 1-781)
# T1 sequence (looked up): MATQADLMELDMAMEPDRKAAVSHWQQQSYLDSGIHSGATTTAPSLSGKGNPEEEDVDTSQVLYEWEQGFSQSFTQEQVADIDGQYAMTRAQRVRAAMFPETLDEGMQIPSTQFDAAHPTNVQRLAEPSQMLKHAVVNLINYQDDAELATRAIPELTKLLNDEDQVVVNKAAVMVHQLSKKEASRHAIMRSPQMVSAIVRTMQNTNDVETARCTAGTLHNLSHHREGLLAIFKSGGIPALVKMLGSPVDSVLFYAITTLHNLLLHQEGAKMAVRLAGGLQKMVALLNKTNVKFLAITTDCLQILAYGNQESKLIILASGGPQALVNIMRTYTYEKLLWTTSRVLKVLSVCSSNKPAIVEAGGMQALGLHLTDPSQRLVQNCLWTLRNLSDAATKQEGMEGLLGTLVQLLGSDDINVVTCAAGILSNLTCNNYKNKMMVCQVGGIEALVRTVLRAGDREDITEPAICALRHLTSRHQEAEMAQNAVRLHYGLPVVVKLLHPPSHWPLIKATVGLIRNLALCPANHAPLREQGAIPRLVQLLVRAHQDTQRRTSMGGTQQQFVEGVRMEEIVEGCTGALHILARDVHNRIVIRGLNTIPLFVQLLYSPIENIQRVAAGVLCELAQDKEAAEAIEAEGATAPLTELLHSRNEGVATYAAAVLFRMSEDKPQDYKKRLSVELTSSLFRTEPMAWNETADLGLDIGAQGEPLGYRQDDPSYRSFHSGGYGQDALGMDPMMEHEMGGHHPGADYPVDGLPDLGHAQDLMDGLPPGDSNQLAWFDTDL
# T2: full-length beta-Catenin (Uniprot ID P35222) (Homo sapiens (Human), UniProt P35222 2-781)
# T2 construct: full-length; also called bCat; B-Catenin
# T2 sequence: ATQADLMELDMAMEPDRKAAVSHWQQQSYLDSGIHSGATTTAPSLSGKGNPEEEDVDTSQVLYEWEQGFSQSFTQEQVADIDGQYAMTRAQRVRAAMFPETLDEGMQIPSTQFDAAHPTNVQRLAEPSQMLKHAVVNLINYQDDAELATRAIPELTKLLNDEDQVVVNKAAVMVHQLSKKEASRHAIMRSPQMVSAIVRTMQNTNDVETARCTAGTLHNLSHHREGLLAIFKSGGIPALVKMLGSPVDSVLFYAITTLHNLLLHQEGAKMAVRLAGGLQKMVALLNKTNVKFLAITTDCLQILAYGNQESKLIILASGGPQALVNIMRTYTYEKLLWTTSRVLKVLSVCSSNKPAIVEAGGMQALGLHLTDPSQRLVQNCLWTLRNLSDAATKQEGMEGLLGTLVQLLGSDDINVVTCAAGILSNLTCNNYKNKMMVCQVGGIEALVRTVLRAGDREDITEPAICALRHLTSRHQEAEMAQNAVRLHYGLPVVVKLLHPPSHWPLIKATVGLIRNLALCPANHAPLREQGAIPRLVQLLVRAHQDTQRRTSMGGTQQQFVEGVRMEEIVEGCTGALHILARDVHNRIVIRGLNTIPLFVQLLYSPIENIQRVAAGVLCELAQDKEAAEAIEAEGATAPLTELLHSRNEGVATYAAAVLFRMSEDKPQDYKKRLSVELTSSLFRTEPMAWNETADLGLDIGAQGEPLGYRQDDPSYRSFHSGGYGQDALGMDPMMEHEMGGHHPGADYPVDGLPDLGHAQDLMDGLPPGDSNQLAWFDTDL
# T3: B-cat-Halo (Homo sapiens (Human), UniProt P35222 1-781)
# T3 sequence: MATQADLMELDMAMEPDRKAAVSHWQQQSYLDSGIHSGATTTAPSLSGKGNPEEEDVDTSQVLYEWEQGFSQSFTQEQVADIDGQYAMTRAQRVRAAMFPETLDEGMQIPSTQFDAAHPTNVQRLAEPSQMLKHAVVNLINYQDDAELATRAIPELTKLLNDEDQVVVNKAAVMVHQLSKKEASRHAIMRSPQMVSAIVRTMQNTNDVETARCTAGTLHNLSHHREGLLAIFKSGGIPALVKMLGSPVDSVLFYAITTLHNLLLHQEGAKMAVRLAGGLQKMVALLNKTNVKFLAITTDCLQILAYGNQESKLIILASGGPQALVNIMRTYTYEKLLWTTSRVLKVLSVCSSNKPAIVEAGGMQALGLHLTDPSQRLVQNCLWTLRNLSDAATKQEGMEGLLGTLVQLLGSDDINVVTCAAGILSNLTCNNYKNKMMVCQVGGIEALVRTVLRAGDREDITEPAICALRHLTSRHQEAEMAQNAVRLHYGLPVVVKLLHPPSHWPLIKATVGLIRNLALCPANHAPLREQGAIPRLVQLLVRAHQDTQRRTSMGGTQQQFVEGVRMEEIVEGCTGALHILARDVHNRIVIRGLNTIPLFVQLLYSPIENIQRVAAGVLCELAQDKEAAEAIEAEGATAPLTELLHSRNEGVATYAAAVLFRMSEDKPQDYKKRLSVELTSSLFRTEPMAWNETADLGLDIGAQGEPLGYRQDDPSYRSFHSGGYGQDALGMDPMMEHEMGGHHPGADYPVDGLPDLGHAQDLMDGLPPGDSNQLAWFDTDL
# T4: full-length beta-Catenin (Uniprot ID P35222) (Homo sapiens (Human), UniProt P35222 1-781)
# T4 construct: The assay protocols call it full-length; also called B-Catenin; bCat
# T4 sequence: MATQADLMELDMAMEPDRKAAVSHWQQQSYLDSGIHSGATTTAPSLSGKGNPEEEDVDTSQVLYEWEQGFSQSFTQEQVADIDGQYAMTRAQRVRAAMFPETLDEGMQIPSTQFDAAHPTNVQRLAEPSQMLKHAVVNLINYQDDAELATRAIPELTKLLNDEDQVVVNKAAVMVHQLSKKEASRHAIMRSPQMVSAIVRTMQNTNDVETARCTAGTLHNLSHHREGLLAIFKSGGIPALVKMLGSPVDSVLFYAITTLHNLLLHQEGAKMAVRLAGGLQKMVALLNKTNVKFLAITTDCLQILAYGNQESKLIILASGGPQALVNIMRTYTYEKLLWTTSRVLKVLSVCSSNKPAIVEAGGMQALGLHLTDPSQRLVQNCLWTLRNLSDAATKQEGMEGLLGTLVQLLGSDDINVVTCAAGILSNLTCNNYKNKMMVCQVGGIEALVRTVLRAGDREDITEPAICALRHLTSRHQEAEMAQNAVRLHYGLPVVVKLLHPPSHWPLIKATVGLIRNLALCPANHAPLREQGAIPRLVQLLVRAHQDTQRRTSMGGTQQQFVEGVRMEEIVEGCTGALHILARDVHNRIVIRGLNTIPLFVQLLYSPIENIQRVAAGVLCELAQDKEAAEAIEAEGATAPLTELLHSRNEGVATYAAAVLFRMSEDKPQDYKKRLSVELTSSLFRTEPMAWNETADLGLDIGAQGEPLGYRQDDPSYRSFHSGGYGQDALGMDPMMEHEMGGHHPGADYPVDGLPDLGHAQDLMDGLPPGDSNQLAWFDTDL
# Assays:
# [1] = molecular target: T1, B-cat-Halo (beta-catenin HaloTag …); assay: cell-based or functional assay
# [2] = molecular target: T2, full-length beta-Catenin (Uniprot ID …); assay: fluorescence polarization competition; displaces 5FAM-TCF4(10-53) from full-length beta-catenin
# Description: (§1) The plate was incubated protected from light for 60 minutes at 20° C. prior to read. Reads were performed on a CLARIOstar plate reader (BMG Labtech) in duplicate, and data were fitted to a 1:1 binding model with hill slope using an in-house script. All provided concentrations are final concentrations.
# B-cat-Halo = molecular target: T3, B-cat-Halo; assay: cell-based or functional assay
# [3] = molecular target: T4, full-length beta-Catenin (Uniprot ID …); assay: fluorescence polarization competition; full-length beta-catenin with 5FAM-labelled TCF4 10-53 peptide as competitor
# Description: as §1
# [4] = molecular target: T4, full-length beta-Catenin (Uniprot ID …); assay: AlphaScreen competition; full-length beta-catenin with biotin-labelled TCF4 10-53 peptide as competitor
# Description: as §1, with “Equal volume of the titrated peptide was added to the” for “The”, “and” for “was”, “incubated for 15 minutes at 20° C. Then 4 uL of donor and 4 uL acceptor beads at 10 ug/mL were added to the plate, for a 16 uL reaction pool and” for “incubated”
NanoBRET Abs IC50 [1] [µM],IC50 [2] [µM],NanoBRET Abs IC50 (B-cat-Halo) [µM],Binder,also measured
> 20,0.068,,"Ac-[αAllylPro]D[hSer][B5(15)]DEAAF[hSer][S8]F[Bta]Q-NH2 (staple 1-4, 4-11; not fully specified; printed as Ac-PL3-Asp-Hse-B5-Asp-Glu-Ala-Ala-Phe-Hse-S8-Phe-BztA-Gln-NH2, Stapled peptide composition; Same description as I-1548; earlier eluting HPLC peak (staple isomer); also called Ac-PL3-Asp-Hse-B5-Asp-Glu-Ala-Ala-Phe-Hse-S8-Phe-BztA-Gln-NH2) [I-1547]",
34.7,0.039,,"Ac-[αAllylPro]DQ[B5(15)]DEAAFL[S8]F[Bta]Q-NH2 (staple 1-4, 4-11, Stapled peptide composition; also called Ac-PL3-Asp-Gln-B5-Asp-Glu-Ala-Ala-Phe-Leu-S8-Phe-BztA-Gln-NH2) [I-1541]",
> 20,0.063,,"Ac-[αAllylPro]DK[B5(23)]DEAAF[hSer][S8]F[Bta]Q-NH2 (staple 1-4, 4-11, Stapled peptide composition; also called Ac-PL3-Asp-Lys-B5-Asp-Glu-Ala-Ala-Phe-Hse-S8-Phe-BztA-Gln-NH2) [I-1554]",
> 20,0.072,,"Ac-[αAllylPro]DN[B5(15)]DEAAF[hSer][S8]F[Bta]Q-NH2 (staple 1-4, 4-11; not fully specified; printed as Ac-PL3-Asp-Asn-B5-Asp-Glu-Ala-Ala-Phe-Hse-S8-Phe-BztA-Gln-NH2, Stapled peptide composition; later eluting HPLC peak (staple isomer); also called Ac-PL3-Asp-Asn-B5-Asp-Glu-Ala-Ala-Phe-Hse-S8-Phe-BztA-Gln-NH2) [I-1535]",
,,4.9,"Ac-[αAllylPro]D[tBuAla][B5(3)]D[Phe(3-COOH)]SAFL[PyrS2″][3Thi][Bta]A-NH2 (staple 1-4, 4-11) [I-2050]",
,,10,"Ac-[αAllylPro]D[tBuAla][B5(3)]D[Phe(3-COOH)]AAFA[PyrS2″][3Thi][Bta]N-NH2 (staple 1-4, 4-11) [I-2042]",
,,28.8,"Ac-[αAllylPro]D[tBuAla][B5(3)]D[TfeGA]AAFL[PyrS2″][3Thi][Bta]Q-NH2 (staple 1-4, 4-11; not fully specified (residue 9)) [I-2048]",

# Further lines, the binder ahead of its results:
Binder,NanoBRET Abs IC50 [1] [µM],IC50 [2] [µM],NanoBRET Abs IC50 (B-cat-Halo) [µM],also measured
"XDSXDEAAFQXFXQ (not fully specified; N-terminal Ac; PL3 at 1, B5 at 4, S8 at 11 (staples PL3-B5 and B5-S8 by olefin metathesis); Hse at 3; BztA at 13; C-terminal NH2, Stapled peptide composition; later eluting HPLC peak (staple isomer); also called Ac-PL3-Asp-Hse-B5-Asp-Glu-Ala-Ala-Phe-Gln-S8-Phe-BztA-Gln-NH2) [I-1545]",> 20,0.026,,
"Ac-[αAllylPro]DK[B5(23)]DEAAFQ[S8]F[Bta]Q-NH2 (staple 1-4, 4-11, Stapled peptide composition; also called Ac-PL3-Asp-Lys-B5-Asp-Glu-Ala-Ala-Phe-Gln-S8-Phe-BztA-Gln-NH2) [I-1552]",> 20,0.056,,
"XDQXDEAAFQXFXQ (not fully specified; N-terminal Ac; PL3 at 1, B5 at 4, S8 at 11 (staples PL3-B5 and B5-S8 by olefin metathesis); BztA at 13; C-terminal NH2, Stapled peptide composition; earlier eluting HPLC peak (staple isomer); also called Ac-PL3-Asp-Gln-B5-Asp-Glu-Ala-Ala-Phe-Gln-S8-Phe-BztA-Gln-NH2) [I-1539]",> 20,0.036,,
"Ac-[αAllylPro]D[tBuAla][B5(3)]D[Phe(3-COOH)]NAFL[PyrS2″][3Thi][Bta]A-NH2 (staple 1-4, 4-11) [I-2049]",,,4.5,
"Ac-[αAllylPro]DA[B5(4)]DDAAFV[S8][Phe(4-F)]WQ-NH2 (staple 1-4, 4-11, Stapled (stitched) peptide; also called Ac-PL3-Asp-Ala-B5-Asp-Asp-Ala-Ala-Phe-Val-S8-4FF-Trp-Gln-NH2) [I-261]",,,,EC50 [3]: 5 µM; EC50 [4]: 0.347 µM
"Ac-[αAllylPro]D[tBuAla][B5(3)]D[Phe(3-COOH)]AAFS[PyrS2″][3Thi][Bta]N-NH2 (staple 1-4, 4-11) [I-2045]",,,13.5,
"Ac-[αAllylPro]D[tBuAla][B5(3)]D[Phe(3-COOH)]AAFF[PyrS2″][3Thi][Bta]N-NH2 (staple 1-4, 4-11) [I-2044]",,,2.6,
